In patent US20230272097A1 (PETMEDIX, published 2023):
Changes are numbered by the printed parent chain. Blank lines part the entries; values can stand above or below the binder they belong to.

How the values were obtained:
[1] = molecular target: T1, canine OX40L, full length membrane form, expressed on the cell surface (HEK293 or MEF cells stably … (canine (dog, beagle))); assay: flow cytometry, single dose, OX40L expressing HEK293 cells against the parental line, fluorescently labelled secondary antibody
T1 construct: The same protein is used on HEK293 and on MEF cells; also called HEK-OX40L; OX40L expressing HEK293 cells
T1 chain: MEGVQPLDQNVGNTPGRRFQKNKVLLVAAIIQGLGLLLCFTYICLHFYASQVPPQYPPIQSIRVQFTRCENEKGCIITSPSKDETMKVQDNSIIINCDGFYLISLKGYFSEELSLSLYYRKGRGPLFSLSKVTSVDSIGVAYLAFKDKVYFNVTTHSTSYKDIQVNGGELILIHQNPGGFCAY
Experimental: CHO cells supernatants containing candidate antibodies are diluted to 1, 5 or 10 μg/ml in FACS buffer (PBS containing 3% FBS) and screened for their ability to bind canine OX40L proteins expressed on cell surface. In brief, HEK293 or MEF cells (or any other commonly used cell lines) expressing canine OX40L at the cell surface are incubated with 100 μl of FACS buffer containing the candidate antibody for 30′ on ice. As a control the parental cell line (HEK293 or MEF cells not expressing OX40L) is also stained with the same antibody solution. After staining, cells are washed with 150 μl FACS buffer followed by centrifugation at 300 g for 3 min. Supernatant is removed, and the cell pellet is resuspended in FACS buffer containing a 1:1000 dilution of a fluorescently labelled secondary antibody recognising the human or canine Fc region of the test antibody for 30 min in the dark, followed by washing with 150 μl FACS buffer and centrifugation at 300 g for 3 mins. Cells are resuspended in FACS buffer and flow cytometry performed using either a […] cytometer, followed by data analysis using FlowJo (FIG. 8).

[2] = molecular target: T2, OX40L ECD-TNCc-HIS protein (trimeric soluble canine OX40L extra cellular domain probe, HIS tagged) (canine; chicken, UniProt P10039 110-139, limits assumed); assay: SPR exp 1, Biacore 8K, OX40L ECD-TNCc-HIS amine coupled to CM5 chip, antibody as analyte, Kd at equilibrium
T2 construct: domain: trimerization domain; also called HIS tagged trimeric OX40L protein; not shown: HIS tag
T2 sequence: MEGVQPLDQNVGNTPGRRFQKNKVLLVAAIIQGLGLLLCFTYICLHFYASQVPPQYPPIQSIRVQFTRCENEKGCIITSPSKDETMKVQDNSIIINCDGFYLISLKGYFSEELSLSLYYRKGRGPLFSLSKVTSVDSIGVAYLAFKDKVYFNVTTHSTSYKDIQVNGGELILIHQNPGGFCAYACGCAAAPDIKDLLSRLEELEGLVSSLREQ
Text: (§1) To determine affinity by SPR (Biacore 8K, Cytivia), purified OX40L ECD-TNCc-HIS protein is covalently bound at low density to the surface of a CM5 sensor chip (Cytivia) by amine coupling, using the manufacturer's recommended protocol. Candidate antibodies are subsequently passed across the chip surface at a range of concentrations and affinity determined using the dedicated software (Biacore Insight Evaluation Software).

[3] = molecular target: T2, OX40L ECD-TNCc-HIS protein (trimeric …); assay: SPR exp 2, Biacore 8K, OX40L ECD-TNCc-HIS amine coupled to CM5 chip, antibody as analyte, Kd at equilibrium
Text: as §1

[4] = molecular target: T1, canine OX40L, full length membrane …; assay: cell binding (flow cytometry on cells expressing OX40L; cell line not given)
Experimental: (§2) Specific binding to cells expressing OX40L is confirmed by purifying mAb from the CHO supernatant using protein A resin (MabSelect, Cytiva). In brief, MabSelect resin is washed in PBS and diluted to have a 10% slurry. An appropriate volume of the 10% slurry is added to the supernatant and incubated 5-10′ at RT before being loaded into a filter column. After 3 washes with PBS the antibodies are eluted using IgG elute buffer (Pierce) directly into neutralisation buffer (10 mM TRIS pH8.0), 8:1 IgG elute: neutralisation buffer ratio. Antibody solutions are quantified measuring absorbance at 280 nm, using a Nanodrop One (Thermo Fisher). Serial 1:3 dilutions of purified antibodies ranging from 6.6 μM to 66 pM are prepared in FACS buffer and are used to stain HEK293 or MEF cells (or any other commonly used cell lines) expressing canine OX40L.

[5] = molecular target: T1, canine OX40L, full length membrane …; assay: flow cytometry titration on HEK cells expressing OX40L; Kd (EC50) from GeoMean vs concentration, Prism four parameter fit
Experimental: FIG. 10. Affinity determination for antibodies that bind OX40L on HEK cells expressing OX40L. Graphs are generated by plotting GeoMean arbitrary units (AU) against Log₁₀ [concentration]. Kd (EC₅₀) was calculated using Prism.
as §2

[6] = molecular target: T1, canine OX40L, full length membrane …; assay: flow cytometry titration on MEF cells expressing OX40L; Kd (EC50) from GeoMean vs concentration, Prism four parameter fit
Experimental: FIG. 11. Affinity determination for antibodies that bind OX40L on MEF cells expressing OX40L. Graphs are generated by plotting GeoMean arbitrary units (AU) against Log₁₀ [concentration]. Kd (EC₅₀) was calculated using Prism.
as §2

binding result [1]: binds
B1: PMX 015 (antibody, V domains shown)
V domain 1: EVQLVESGGDLVKPGGSLRISCVASGFTFSYYHMSWVRQAPGKGLQWVAYINSGGFSTNYADAVKGRCSISRDNGKNTLYLQMNSLRPEDTGVYYCASESRWGDSYSGMTYWGHGTSLFVSS
V domain 2: SYVLTQLPSKNVTLKQPAHITCGGDNIGSKSVHWYQQKLGQAPVLIIYYDNSRPTGIPERFSGAKSGNTATLTISGALAEDEADYYCQVWDSSAKASVFGGGTHLTVL
notes: anti-canine OX40L candidate

Kd [2]: 19.7 nM | Kd [3]: 6.61 nM | Kd [4]: 74.6 nM | Kd [5]: 5.12 nM | Kd [6]: 1.11 nM
B2: PMX014 (antibody, V domains shown)
VH: EVQLVESGGDLVKPGGSLRLSCVASGFTFSNFHMSWVRQAPGKGLQWVAYINSGGFNINYEDAVRGRFTISRDNAKNTLYLQMNSLRAEDTAIYYCARDWDTHLDTNWFYYWGQGTLVTVSS
VL: B1 V domain 2 with P17S, G23R, N51S, K65N, S92I
notes: Canine variable regions

Kd [2]: 14.8 nM | Kd [3]: 14.8 nM | Kd [4]: 37 nM | Kd [5]: 3 nM
B3: PMX012 (antibody, V domains shown)
VH: EVQLVESGGDLVKPGGSLRLACVTSGFTFSSYHMNWVRQAPGKGLQWVAYINTGGTVTTYADAMNADAVRGRFTISRDNVKNTLYLQMNRLRAEDTAVYYCARGYGVFDYWGQGTLVTVSP
VL: SYVLTQLPSKNVTLKQPAHITCGGDNIGSKSVHWYQQKLGQAPVLIIYYDSRRPTGIPERFSGANSGNTATLTISGALAEDEADYYCQVWDNSDRASWVFGEGTQLTVL
notes: Canine variable regions from Ky9 mice; human kappa or canine kappa/lambda light constant
